Measured values taken from patent publication WO2017046774A2 (dated 2017).

T1: human MCAM C272A mutant (shotgun mutagenesis library clone, on cells) (human, UniProt P43121 24-646)
T1 construct: Expressed in BHK cells, immunodetection
T1 chain: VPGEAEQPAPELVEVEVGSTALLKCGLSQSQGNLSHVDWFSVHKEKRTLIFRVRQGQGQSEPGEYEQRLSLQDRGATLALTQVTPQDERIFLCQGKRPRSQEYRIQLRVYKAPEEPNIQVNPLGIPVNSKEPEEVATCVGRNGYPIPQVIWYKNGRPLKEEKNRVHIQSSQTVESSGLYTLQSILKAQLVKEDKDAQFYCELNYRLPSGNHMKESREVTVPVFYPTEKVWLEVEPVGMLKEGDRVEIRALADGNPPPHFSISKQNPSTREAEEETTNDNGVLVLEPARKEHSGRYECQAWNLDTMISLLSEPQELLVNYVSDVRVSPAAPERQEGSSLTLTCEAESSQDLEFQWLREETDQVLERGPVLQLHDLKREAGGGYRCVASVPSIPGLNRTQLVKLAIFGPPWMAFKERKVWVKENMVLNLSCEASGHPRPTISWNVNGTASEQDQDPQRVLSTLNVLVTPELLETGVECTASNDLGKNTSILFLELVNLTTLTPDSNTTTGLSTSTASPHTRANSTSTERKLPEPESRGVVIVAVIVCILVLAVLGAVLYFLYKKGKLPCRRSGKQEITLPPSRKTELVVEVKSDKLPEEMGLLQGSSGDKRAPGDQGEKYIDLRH


What was measured:
recombinant laminin 511 = target: T2, recombinant laminin 511 (UniProt O15230 36-3695; P07942 22-1786; P11047 34-1609); assay: flow cytometry on CHO cells transfected with human MCAM, pan-laminin antibody
T2 construct: also called laminin 10 (α5β1γ1)

[1] = target: T1, human MCAM C272A mutant (shotgun …); assay: shotgun mutagenesis library, immunodetection on BHK cells, normalized to wild type MCAM

binding result (recombinant laminin 511) | Binder | mean monoclonal antibody reactivity (% WT) [1] [% WT]
no binding (tested: 10 μg/ml) | human MCAM (full length, expressed on the surface of transfected cells) (receptor, also called CD146; MUC18) VPGEAEQPAPELVEVEVGSTALLKCGLSQSQGNLSHVDWFSVHKEKRTLIFRVRQGQGQSEPGEYEQRLSLQDRGATLALTQVTPQDERIFLCQGKRPRSQEYRIQLRVYKAPEEPNIQVNPLGIPVNSKEPEEVATCVGRNGYPIPQVIWYKNGRPLKEEKNRVHIQSSQTVESSGLYTLQSILKAQLVKEDKDAQFYCELNYRLPSGNHMKESREVTVPVFYPTEKVWLEVEPVGMLKEGDRVEIRCLADGNPPPHFSISKQNPSTREAEEETTNDNGVLVLEPARKEHSGRYECQAWNLDTMISLLSEPQELLVNYVSDVRVSPAAPERQEGSSLTLTCEAESSQDLEFQWLREETDQVLERGPVLQLHDLKREAGGGYRCVASVPSIPGLNRTQLVKLAIFGPPWMAFKERKVWVKENMVLNLSCEASGHPRPTISWNVNGTASEQDQDPQRVLSTLNVLVTPELLETGVECTASNDLGKNTSILFLELVNLTTLTPDSNTTTGLSTSTASPHTRANSTSTERKLPEPESRGVVIVAVIVCILVLAVLGAVLYFLYKKGKLPCRRSGKQEITLPPSRKTELVVEVKSDKLPEEMGLLQGSSGDKRAPGDQGEKYIDLRH | 
 | mouse anti-human MCAM monoclonal antibody clone 1749.1.3 (antibody, V domains shown, Mouse hybridoma monoclonal antibody; also called m1749) VH: DVKLVESGGDLVKPGGSLKLSCAASGFTFSSYIMSWVRQTPEKRLEWVATISSGGSSTYYPDSVKGRFTISRDNAKNTLYLQMSSLKSEDTAMYYCTRDDDYDVKVFAYWGQGTLVTVSA VL: DIVMSQSPSSLAVSAGEKVTMNCKSSRSLLNSRIRKNYLAWYQQKPGQSPKLLIYWASTRESGVPDRFTGSGSGTDFTLTISSVQAEDLAVYYCKQSYNLLTFGAGTKLELK | < 30
